{"source": "patent US20260029420A1", "about": "“ANTI-CB2 ANTIBODIES AND THEIR USE IN A FLOW CYTOMETRY ASSAY TO MEASURE CELL SURFACE CB2 EXPRESSION” (Hoffmann-La Roche Inc., priority 2022, published 2026)", "molecules": {"B1": {"name": "hCB2-1/622: murine IgG3 monoclonal anti-human CB2 antibody, VH SEQ ID NO: 1, VL SEQ ID NO: 2, HC SEQ ID NO: 3, LC SEQ ID NO: 4 (antibody)", "heavy": "EVQLQQSGPELVKPGASVKISCKTSGYTFTEYTMHWVRQSHGKSLEWIGGIDRYNGDTYYNQKFKDKATLTVDRSSSTAYMELRSLTSEDSAVYFCARNGAMDYWGQGISVTVSSATTTAPSVYPLVPGCSDTSGSSVTLGCLVKGYFPEPVTVKWNYGALSSGVRTVSSVLQSGFYSLSSLVTVPSSTWPSQTVICNVAHPASKTELIKRIEPRIPKPSTPPGSSCPPGNILGGPSVFIFPPKPKDALMISLTPKVTCVVVDVSEDDPDVHVSWFVDNKEVHTAWTQPREAQYNSTFRVVSALPIQHQDWMRGKEFKCKVNNKALPAPIERTISKPKGRAQTPQVYTIPPPREQMSKKKVSLTCLVTNFFSEAISVEWERNGELEQDYKNTPPILDSDGTYFLYSKLTVDTDSWLQGEIFTCSVVHEALHNHHTQKNLSRSPGK", "light": "DVVMTQTPLSLPVSLGDQASISCRSSQSLVHSNGNTYLHWFLQKPGQSPKLLIYKVSIRFSGVPDRFSGSGSGTDFTLKISRVEAEDLGVYFCSQSTHVPPLTFGAGTKLELKRADAAPTVSIFPPSSEQLTSGGASVVCFLNNFYPKDINVKWKIDGSERQNGVLNSWTDQDSKDSTYSMSSTLTLTKDEYERHNSYTCEATHKTSTSPIVKSFNRNEC"}}, "key": {"[1]": {"system": "CHODukx negative", "assay": "Immunoprecipitation from whole cell lysates, negative control", "assay_type": "binding", "parameters": "key: “−” no signal; “+”-“+++++” signal intensity; “+”-“+++++” signal intensity; “+”-“+++++” signal intensity; “+”-“+++++” signal intensity; “+”-“+++++” signal intensity", "settings": "CHODukx negative lysate", "method": "(§1) The positive clones (Table 1) were further characterized by immunofluorescence (IF; Table 2), Western Blot (Table 3, 1) and Immune precipitation (Table 4, 2) on full length hCB2, hCB1, mCB2 stable-transfected CHO-cell lines in addition to the 2 pANITA constructs.\n(§2) For immunoprecipitation (IP), whole cell lysates were incubated with the respective antibodies. IP was performed according to established protocols and subsequent western blot as described herein above."}, "[2]": {"system": "CHODukx negative", "assay": "Immunofluorescence on methanol-fixed cells, negative control", "assay_type": "binding", "parameters": "key to immunofluorescence signal intensity: “−” no fluorescence detected; “+”-“++++” intensity of fluorescent signal; “+”-“++++” intensity of fluorescent signal; “+”-“++++” intensity of fluorescent signal; “+”-“++++” intensity of fluorescent signal", "method": "as §1\nFor IF analysis, methanol-fixed cells were incubated for 20 min in a humid chamber at 37° C. with the respective hCB2 and mCB2 clones. After rinsing twice and washing for 15 min in PBS, 125 μg/ml FITC-conjugated […] anti-mouse IgG antibodies (RAM/IgG (H+L)/FITC, Nordic\nImmunological Laboratories) diluted in PBS was added and incubated for 20 min in a humid chamber at 37° C. Cells were rinsed twice and washed for 15 min in PBS, mounted with mounting solution (50% PBS 50% glycerol) and covered with a coverslip. Staining was assessed by fluorescence microscopy on a Leica CTR500 fluorescence microscope and a Leica DFC300 FX digital camera."}, "[3]": {"target": "T1, CHODukx CRE hCB1 Cl.20 (Homo sapiens, UniProt P21554)", "T1 construct": "expressed in transfected cells", "T1 sequence (P21554 whole entry)": "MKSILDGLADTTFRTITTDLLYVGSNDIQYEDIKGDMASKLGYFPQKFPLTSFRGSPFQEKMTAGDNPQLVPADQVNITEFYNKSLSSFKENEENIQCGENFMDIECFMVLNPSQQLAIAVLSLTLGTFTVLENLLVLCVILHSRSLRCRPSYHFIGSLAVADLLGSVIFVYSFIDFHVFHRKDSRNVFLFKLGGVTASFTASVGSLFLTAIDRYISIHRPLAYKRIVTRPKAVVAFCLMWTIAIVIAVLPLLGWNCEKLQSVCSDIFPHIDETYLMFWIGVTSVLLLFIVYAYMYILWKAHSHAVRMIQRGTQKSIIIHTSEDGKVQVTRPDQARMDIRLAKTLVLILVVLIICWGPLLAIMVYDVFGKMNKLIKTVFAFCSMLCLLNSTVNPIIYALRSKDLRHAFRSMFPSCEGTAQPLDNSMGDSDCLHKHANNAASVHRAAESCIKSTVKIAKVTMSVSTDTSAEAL", "assay": "Immunoprecipitation from whole cell lysates", "assay_type": "binding", "parameters": "key: “−” no signal; “+”-“+++++” signal intensity; “+”-“+++++” signal intensity; “+”-“+++++” signal intensity; “+”-“+++++” signal intensity; “+”-“+++++” signal intensity", "settings": "CHODukx CRE hCB1 Cl.20 lysate", "method": "as §1, §2"}, "[4]": {"target": "T2, CHO-A2 mCB2 (Mus musculus, UniProt P47936)", "T2 construct": "expressed in transfected cells", "T2 sequence (P47936 whole entry)": "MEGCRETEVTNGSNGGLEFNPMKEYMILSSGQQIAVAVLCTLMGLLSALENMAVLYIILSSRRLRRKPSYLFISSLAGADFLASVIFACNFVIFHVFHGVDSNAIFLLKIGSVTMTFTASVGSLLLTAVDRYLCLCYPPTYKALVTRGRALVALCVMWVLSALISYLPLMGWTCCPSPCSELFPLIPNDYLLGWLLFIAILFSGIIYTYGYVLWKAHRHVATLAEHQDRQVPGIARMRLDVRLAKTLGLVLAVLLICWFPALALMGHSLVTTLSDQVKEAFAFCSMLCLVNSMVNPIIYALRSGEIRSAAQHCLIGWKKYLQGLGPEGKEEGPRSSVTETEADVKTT", "assay": "Immunoprecipitation from whole cell lysates", "assay_type": "binding", "parameters": "key: “−” no signal; “+”-“+++++” signal intensity; “+”-“+++++” signal intensity; “+”-“+++++” signal intensity; “+”-“+++++” signal intensity; “+”-“+++++” signal intensity", "settings": "CHO-A2 mCB2 lysate", "method": "as §1, §2"}, "[5]": {"target": "T3, CHODukx CRE hCB2 Cl.90 (Homo sapiens, UniProt P34972)", "T3 construct": "expressed in transfected cells", "T3 sequence (P34972 whole entry)": "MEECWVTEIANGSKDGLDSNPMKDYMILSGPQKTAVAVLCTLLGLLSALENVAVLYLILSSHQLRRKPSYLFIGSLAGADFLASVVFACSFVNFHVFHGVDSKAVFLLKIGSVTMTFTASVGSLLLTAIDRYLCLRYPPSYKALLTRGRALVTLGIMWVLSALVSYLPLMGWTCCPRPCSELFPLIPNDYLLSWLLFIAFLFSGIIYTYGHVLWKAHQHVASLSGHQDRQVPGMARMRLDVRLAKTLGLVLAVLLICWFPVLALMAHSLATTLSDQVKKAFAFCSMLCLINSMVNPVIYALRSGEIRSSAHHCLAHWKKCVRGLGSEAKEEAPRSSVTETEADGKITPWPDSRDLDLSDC", "assay": "Immunoprecipitation from whole cell lysates", "assay_type": "binding", "parameters": "key: “−” no signal; “+”-“++++” signal intensity; “+”-“++++” signal intensity; “+”-“++++” signal intensity; “+”-“++++” signal intensity", "settings": "CHODukx CRE hCB2 Cl.90 lysate", "method": "as §1, §2"}, "[6]": {"system": "pANITA3.1 ratGIPR (DB388)", "assay": "Western blot of cell lysates", "assay_type": "binding, rat", "parameters": "key to Western Blot signal intensity: “−” no signal; “+”-“+++++” signal intensity; “+”-“+++++” signal intensity; “+”-“+++++” signal intensity; “+”-“+++++” signal intensity; “+”-“+++++” signal intensity", "method": "as §1\n(§3) For Western blot analysis, cells were collected using enzyme free dissociation buffer (Cell dissociation buffer enzyme-free Hanks'-based, Gibco), and washed two times with PBS. To prepare cell lysate, 10^6 cells were lysed with 0.1 ml of lysis buffer (1% NP40, 10% glycerol, 2 mM EDTA, 137 mM NaCl, 20 mM TrisHCl, pH8, Protease Inhibitors) for 10 min on ice. The lysate was cleared by centrifugation at 20′000 g for 5 min. For SDS-PAGE cell lysate was resolved on precast 4-12% gradient gels (NuPAGE® Novex 4-12% Bis-Tris Gel, Invitrogen) with MES running buffer according to the manufacturer's directions. The separation of proteins was visualized by Colloidal Blue staining. The proteins were electrophoretically transferred to nitrocellulose membrane using a dry-blotting system (iBlot, Invitrogen). After blocking the membrane for 16 h in blocking buffer (5% Milk in PBS) at 4° C., specific proteins were detected with appropriate dilutions of mAbs in blocking buffer for 1 h at approximately 20° C. […]"}, "[7]": {"system": "CHODukx negative", "assay": "Western blot of cell lysates, negative control", "assay_type": "binding", "parameters": "key: “−” no signal; “+”-“+++++” signal intensity; “+”-“+++++” signal intensity; “+”-“+++++” signal intensity; “+”-“+++++” signal intensity; “+”-“+++++” signal intensity", "settings": "CHODukx negative lysate", "method": "as §1, §3"}}, "data": [{"molecule": "B1", "values": [{"measurement": "Immunoprecipitation signal intensity", "setting": "[1]", "value": "−"}, {"measurement": "immunofluorescence signal intensity", "setting": "[2]; CHODukx negative cells", "value": "−"}, {"measurement": "immunofluorescence staining", "setting": "[2]; negative control cells", "value": "no staining"}, {"measurement": "Immunoprecipitation signal intensity", "setting": "[3]", "value": "−"}, {"measurement": "Immunoprecipitation signal intensity", "setting": "[4]", "value": "−"}, {"measurement": "Immunoprecipitation signal intensity", "setting": "[5]", "value": "+"}, {"measurement": "Western Blot signal intensity", "setting": "[6]; pANITA3.1 ratGIPR (DB388) lysate", "value": "−"}, {"measurement": "Western blot detection", "setting": "[6]; rat GIPR", "value": "no mCB2, hCB1 or rat GIPR was detected"}, {"measurement": "Western Blot signal intensity", "setting": "[7]", "value": "−"}]}]}
